± gives the standard deviation.
Assay: protein stability index of a GFP-peptide fusion (GPS, HEK-293T) (PSI 1-6); higher = more stable
Details: c terminus: a fixed tail appended
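Note: 24-mer peptide tiles fused after GFP, lentivirally expressed, FACS-sorted into six equal bins by GFP/DsRed ratio, decoded by Illumina sequencing, PSI is the read-weighted mean bin number.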

Sequence TSTGSAASSGSNSSASSEQGLLGR [SPRY1] has a protein stability index (treatment: DMSO) of 5.07 ± 0.28 and a protein stability index (treatment: MLN4924 1 uM, 8 h) of 5.17 ± 0.099.
TTPSTSSSSSFDPSVFDGLGDLLM [SNAP91] gave a protein stability index (treatment: DMSO) of 3.32 ± 0.21 and a protein stability index (treatment: MLN4924 1 uM, 8 h) of 3.48 ± 0.28.
For TVIHDFLFSLKESPEKFQIEANFP [FAF2], the protein stability index (treatment: DMSO) was 2.14 ± 0.37 and the protein stability index (treatment: MLN4924 1 uM, 8 h) was 2.03 ± 0.19.
For TVKTHLTSLKTKFPAEQYYRFHEH [TSN], the protein stability index (treatment: DMSO) was 2.32 ± 0.25 and the protein stability index (treatment: MLN4924 1 uM, 8 h) was 2.44 ± 0.36.
Sequence TVQGKKGVYMTDITPQGVAMRAGV [PDZK1] has a protein stability index (treatment: DMSO) of 3.12 ± 0.079 and a protein stability index (treatment: MLN4924 1 uM, 8 h) of 3.32 ± 0.25.
TWESKNILAVSFAPLVQPSKNDNG [PCMTD1] showed a protein stability index (treatment: DMSO) of 3.3 ± 0.41 and a protein stability index (treatment: MLN4924 1 uM, 8 h) of 3.6 ± 0.51.
Work on TYTYTSRPRALPCQRSRYRDSLTQ [RSPH3] yielded a protein stability index (treatment: DMSO) of 3.18 ± 0.23 and a protein stability index (treatment: MLN4924 1 uM, 8 h) of 3.18 ± 0.14.
In the case of VAAELLNHLLESMPLREGSSFQDL [HES6], the protein stability index (treatment: DMSO) is reported as 3.11 ± 0.69 and the protein stability index (treatment: MLN4924 1 uM, 8 h) is reported as 3.35 ± 0.79.
Work on VADRWYSEIKNYNFQQPGFTSGTG [GLIPR2] yielded a protein stability index (treatment: DMSO) of 2.61 ± 0.097 and a protein stability index (treatment: MLN4924 1 uM, 8 h) of 2.93 ± 0.34.
Work on VAREDVRESCPPLGLETLKITDFQ [CPXM2] yielded a protein stability index (treatment: DMSO) of 3.96 ± 0.48 and a protein stability index (treatment: MLN4924 1 uM, 8 h) of 4.09 ± 0.33.
VASLPLDQSDEGSSSQKEESPSTL [MAGEA10] showed a protein stability index (treatment: DMSO) of 5.65 ± 0.14 and a protein stability index (treatment: MLN4924 1 uM, 8 h) of 5.64 ± 0.14.
VAVDFTWEEWQFLSPAQKDLYRDV [ZNF649] showed a protein stability index (treatment: DMSO) of 2.54 ± 0.73 and a protein stability index (treatment: MLN4924 1 uM, 8 h) of 2.64 ± 0.22.
Sequence VCISTKTQCSEEDQCKINKQIYNL [FEM1B] has a protein stability index (treatment: DMSO) of 3.22 ± 0.19 and a protein stability index (treatment: MLN4924 1 uM, 8 h) of 3.33 ± 0.25.
Work on VDAAYANKVELQAKVESMDQEIKF [KRT71] yielded a protein stability index (treatment: DMSO) of 4.88 ± 0.41 and a protein stability index (treatment: MLN4924 1 uM, 8 h) of 4.87 ± 0.21.
For VDEKGEKVRPSHKRCIVILREIPE [LARP4], the protein stability index (treatment: DMSO) was 2.9 ± 0.11 and the protein stability index (treatment: MLN4924 1 uM, 8 h) was 3.07 ± 0.037.
Work on VDLDPTDGKLFPSDGFRDCKKGDP [ELF3] yielded a protein stability index (treatment: DMSO) of 5.31 ± 0.1 and a protein stability index (treatment: MLN4924 1 uM, 8 h) of 5.2 ± 0.25.
For VFDCLKDGMRNKETLEGREKAFIA [MED27], the protein stability index (treatment: DMSO) was 3.88 ± 0.28 and the protein stability index (treatment: MLN4924 1 uM, 8 h) was 3.91 ± 0.25.
In the case of VFRWLAYSYASTHRLMTDARRRVC [CPXM2], the protein stability index (treatment: DMSO) is reported as 2.35 ± 0.32 and the protein stability index (treatment: MLN4924 1 uM, 8 h) is reported as 2.54 ± 0.32.
For VHSSPVSSPSVSGPRRLVSCLSSQ [SPACA3], the protein stability index (treatment: DMSO) was 3.38 ± 0.2 and the protein stability index (treatment: MLN4924 1 uM, 8 h) was 3.54 ± 0.18.
For VITIKSESTFKNTEISFILGQEFD [FABP4], the protein stability index (treatment: DMSO) was 2.23 ± 0.53 and the protein stability index (treatment: MLN4924 1 uM, 8 h) was 2.4 ± 0.078.
Work on VKQYLSTTLGPKLASQALTPPPGP [TFE3] yielded a protein stability index (treatment: DMSO) of 2.92 ± 0.19 and a protein stability index (treatment: MLN4924 1 uM, 8 h) of 2.93 ± 0.3.
VKSHLLDYVMTTLLFSDKNVNSNL [TRIP13] showed a protein stability index (treatment: DMSO) of 3.08 ± 0.36 and a protein stability index (treatment: MLN4924 1 uM, 8 h) of 2.79 ± 0.32.
Sequence VLAIPRRLRVELECEEGELSFYDA [TRIM35] has a protein stability index (treatment: DMSO) of 2.96 ± 0.2 and a protein stability index (treatment: MLN4924 1 uM, 8 h) of 3.08 ± 0.23.
With VLEWGAEGVAGKSGLEKEVQRLTS [FCHSD1] the protein stability index (treatment: DMSO) was 4.1 ± 0.16 and the protein stability index (treatment: MLN4924 1 uM, 8 h) was 4.09 ± 0.22.
In the case of VLMWLLTYVGALFNGLTLLLMAVV [RTN1], the protein stability index (treatment: DMSO) is reported as 2.51 ± 0.29 and the protein stability index (treatment: MLN4924 1 uM, 8 h) is reported as 2.42 ± 0.13.
With VLRSWYEKNKHIFPASRWEPYDPE [FAM50A] the protein stability index (treatment: DMSO) was 2.87 ± 0.078 and the protein stability index (treatment: MLN4924 1 uM, 8 h) was 3 ± 0.21.
Work on VMFKIGDLGHVTRISSPQVEEGDS [WEE1] yielded a protein stability index (treatment: DMSO) of 3.44 ± 0.23 and a protein stability index (treatment: MLN4924 1 uM, 8 h) of 3.45 ± 0.37.
In the case of VNDNAPEVLLASLANPVLESTPVG [PCDHGC5], the protein stability index (treatment: DMSO) is reported as 4.55 ± 0.18 and the protein stability index (treatment: MLN4924 1 uM, 8 h) is reported as 4.51 ± 0.12.
Sequence VNMVDVAKALNRPPTYPTKYFGCE [EIF5] has a protein stability index (treatment: DMSO) of 2.56 ± 0.19 and a protein stability index (treatment: MLN4924 1 uM, 8 h) of 2.45 ± 0.18.
In the case of VNRKSVKGNTALHDCAESGSLDIM [FEM1C], the protein stability index (treatment: DMSO) is reported as 3.7 ± 0.28 and the protein stability index (treatment: MLN4924 1 uM, 8 h) is reported as 3.46 ± 0.47.
VPQRTAGGDVPERELYIRWLEVAA [MYORG] gave a protein stability index (treatment: DMSO) of 2.62 ± 0.19 and a protein stability index (treatment: MLN4924 1 uM, 8 h) of 2.77 ± 0.3.
Sequence VPVLKPMDLMVEVSPRRIFANGHT [PPP2R2C] has a protein stability index (treatment: DMSO) of 2.59 ± 0.48 and a protein stability index (treatment: MLN4924 1 uM, 8 h) of 2.75 ± 0.14.
VQILCHTYWEHWTSQGQVRMRLFG [RTP4] gave a protein stability index (treatment: DMSO) of 2.45 ± 0.87 and a protein stability index (treatment: MLN4924 1 uM, 8 h) of 2.52 ± 1.1.
Work on VQTPPGGSEVVPVISPMYQLHKPL [IKZF1] yielded a protein stability index (treatment: DMSO) of 3.77 ± 0.4 and a protein stability index (treatment: MLN4924 1 uM, 8 h) of 3.53 ± 0.23.
Work on VRDGPFGFSPIIGRFCGQQNPPVI [NETO1] yielded a protein stability index (treatment: DMSO) of 2.27 ± 0.21 and a protein stability index (treatment: MLN4924 1 uM, 8 h) of 2.25 ± 0.19.
With VRELVDKATNVVMNYSEIESKVRE [CLINT1] the protein stability index (treatment: DMSO) was 4 ± 0.38 and the protein stability index (treatment: MLN4924 1 uM, 8 h) was 3.8 ± 0.37.
VRKEDMTYAVRKLDNTKFRSHEGE [SRSF1] gave a protein stability index (treatment: DMSO) of 4.32 ± 0.13 and a protein stability index (treatment: MLN4924 1 uM, 8 h) of 4.13 ± 0.16.
With VRLGSFRSPRAGAGALLRLPSERL [PRPH] the protein stability index (treatment: DMSO) was 2.96 ± 0.16 and the protein stability index (treatment: MLN4924 1 uM, 8 h) was 3.23 ± 0.24.
Sequence VRQAFQDQDDRRTWDGRPLTMAAT [GFOD1] has a protein stability index (treatment: DMSO) of 3.829 ± 0.031 and a protein stability index (treatment: MLN4924 1 uM, 8 h) of 3.65 ± 0.26.
In the case of VRRTDDTPVVLVGNKSDLKQLRQV [RIT1], the protein stability index (treatment: DMSO) is reported as 3.56 ± 0.26 and the protein stability index (treatment: MLN4924 1 uM, 8 h) is reported as 3.6 ± 0.23.
For VRVALDYEAGQVTLHNAQTQEPIF [TRIM15], the protein stability index (treatment: DMSO) was 2.29 ± 0.33 and the protein stability index (treatment: MLN4924 1 uM, 8 h) was 2.51 ± 0.33.
VSGINGDIRAKKIASIADVCESMK [HNF4A] gave a protein stability index (treatment: DMSO) of 3.52 ± 0.15 and a protein stability index (treatment: MLN4924 1 uM, 8 h) of 3.72 ± 0.31.
Sequence VSLAVTLHRLKFLGFARRNWGNGK [GDAP1] has a protein stability index (treatment: DMSO) of 2.38 ± 0.41 and a protein stability index (treatment: MLN4924 1 uM, 8 h) of 2.33 ± 0.64.
VSTFLSGVMLTWPDGLMYQKFRNQ [TMEM120A] gave a protein stability index (treatment: DMSO) of 2.85 ± 0.82 and a protein stability index (treatment: MLN4924 1 uM, 8 h) of 2.36 ± 0.54.
VTFREENTIAFRHLFLLGYSDGAD [MCOLN1] gave a protein stability index (treatment: DMSO) of 2.38 ± 0.2 and a protein stability index (treatment: MLN4924 1 uM, 8 h) of 2.2 ± 0.11.

Source: the supplement of paper PMC10567573
